± gives the uncertainty stated by the source.
assay: amyloid nucleation score (Sup35N fusion, yeast selection) (log enrichment); library NNK1; higher = more nucleation; inactive = no reads after selection
How it was run: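 Sup35N was fused to peptides of 20 random codons and expressed in psi-negative yeast, which were induced with 100 μM copper sulfate for 24 hours and then grown on medium lacking adenine and uracil for 7 days at 30°C. Plasmid inserts from input and output were sequenced on Illumina. The nucleation score is the DiMSum log enrichment of output over input reads, centred on the mode score of non-aggregating sequences. Sequences with under 100 input reads were left out, and random libraries had three technical output replicates.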

Row | Substance | amyloid nucleation score
1 | ILERSHRVGYCAHLLCISVN | 0.171 ± 0.63
2 | GNFMNRCAFRRMGYSTISIN | 1.35 ± 0.47
3 | DIRVLTPLRITFHLKAQGLL | -0.266 ± 1.4
4 | SRLTFVVVWDSSVVHIRMTG | 3.46 ± 0.12
5 | ILHDNFKSSELFAWSAYCRY | inactive
6 | VKLSYGWVLSGAELTEYVTM | -0.782 ± 0.54
7 | YYMTIFERFSLHFTMGLNLG | 0.752 ± 0.56
8 | LESHSNTINIGCKNFGCNRG | 5.38 ± 0.073
9 | AKRLFRRSTLMTSNTGLAVL | 0.287 ± 1.4
10 | LYRYEYDCNSLSMS | 2.73 ± 0.078
11 | SSINMVVSPK | 1.09 ± 0.3
12 | GGVVCRVKGKNRFPLVSWQF | -0.565 ± 0.61
13 | GPSRNGWFNATLGHTLLSNT | 0.638 ± 0.42
14 | KFDPVKQYLCMYFFTYQIES | 2.06 ± 0.15
15 | SYDSRNASLVIIISWVMQPL | 0.992 ± 0.16
16 | NMTAYSRCSSRTWYTVVFSG | 1.71 ± 0.15
17 | CEVRFLCWYGFIWRYN | -0.336 ± 0.74
18 | MLKGMQSDSLKLNGDVDPCV | 0.175 ± 0.28
19 | SSSFRCAFSSVA | 0.994 ± 0.69
20 | DRFVVVLCFTDQ | 0.452 ± 0.46
21 | LVLMWLLSGYGAHHFYYAK | 0 ± 1.2
22 | SSVGKLGDPWL | -1.15 ± 0.53
23 | TRQWGHFSLYGESYFSCI | 0.187 ± 0.63
24 | TLGSIGLAIGRSTTGGRS | 0.51 ± 0.9
25 | MLVFNNFEPLFLFVSTWTCQ | 7.11 ± 0.06

Row | Substance | amyloid nucleation score
26 | GNVKSTRWFESV | 0.72 ± 0.78
27 | FKNCFDSNTAGICLNHLWKR | 1.25 ± 0.63
28 | NGRIQKLASNTCGLWEDLDT | 0.501 ± 0.54
29 | WPELIFNGVPMSSCVLPGLF | 1.12 ± 0.6
30 | GPGPCWKPITGGWRTRKFTR | 0.61 ± 0.56
31 | FFENWVYYHKCSHCYTAQYT | -0.559 ± 0.35
32 | CIFGHWAFFDCNCYILYVLY | 2.27 ± 0.23
33 | PRVLHTSVGFCLFNEYCSTT | 2.45 ± 0.18
34 | VIIKTRLELYKWRTMISSND | -0.454 ± 0.63
35 | TMVCKGSCFWSSWSITFPLQ | inactive
36 | NSSTVDFSYTNYVRVLLLIA | -0.745 ± 0.8
37 | NLACGFKSWDFKRMRD | 0.685 ± 0.51
38 | GCCSVFQNCCSSRVYIFVPI | 4.87 ± 0.082
39 | SWWEFECETS | inactive
40 | WRLSLYPQPLGLWAEATLDT | -0.209 ± 0.53
41 | TWYILMTRGILGTAATHIRL | -0.234 ± 0.91
42 | VFNTSRLFRSLYPK | 0.573 ± 0.82
43 | YPYNWSPYEAASIVAVQNYQ | -1.44 ± 1.5
44 | LLRVLFFCFSMRCRVGISVA | 0.86 ± 0.69
45 | CHCGVL | 0.702 ± 1.1
46 | VRIAPHKGPDRTSGVLLGRM | 0.838 ± 0.75
47 | LYSKGIPMACAQVVVYLNER | 6.49 ± 0.055
48 | YIRNTLTPEMVNWRDLRVPR | -0.152 ± 0.73
49 | VEGRRFDINAWRDWTKGVR | -0.238 ± 0.3
50 | WGTLVIGCFVHTVNLHNRKR | 6.809 ± 0.048

Row | Substance | amyloid nucleation score
51 | NDRLLMVRYILHFESNAMTW | 0.794 ± 0.38
52 | WLAFWCDLGVSSSFFWAFCG | -0.066 ± 0.37
53 | AGAWIVDVTGKSMERYVGNK | 0.133 ± 0.61
54 | RLYLDMSIRPSWASVRFSFG | -1.19 ± 1.9
55 | FICFYVVSYTIMSLLFDTLG | 0.713 ± 0.92
56 | GHNLRLWCCNEADHFFRAQR | -1.16 ± 1.9
57 | IVPAEAVLRRLQRFLRWLVV | -0.245 ± 1.1
58 | HSATGQIGRALLTSSCVCL | inactive
59 | LFLNMNPVLDTIIPFGWSSV | -0.128 ± 0.56
60 | CTKCYPGVLYYFDCSGPGTR | -0.51 ± 0.65
61 | PKLRKLVSFYVSYIPGGGYG | -0.106 ± 0.93
62 | VGSGSDQQYALMSNLYSKLS | 1.02 ± 0.7
63 | SPGFYLHGYQQNQHP | 0.653 ± 0.68
64 | FTIVLELFRNFSRSKVYEDV | -0.756 ± 2.4
65 | AYFMDASFNVFIDISFGGGL | 8.115 ± 0.046
66 | SGFRVKQYMFLCFY | -0.473 ± 0.73
67 | LYGYCFMLVSRESFLVRSGW | -0.272 ± 0.52
68 | NFLFCFCHYCIWKVCTVAGC | -0.073 ± 0.45
69 | GLGRSLKGHIMTAMRCMQGV | -0.691 ± 0.44
70 | CWLRIGSSFRRARSGWTCDS | -0.834 ± 0.91
71 | MSDCPACGCSCHRSKLISGF | -0.414 ± 0.5
72 | KYYYWRRVPVCQKGDLF | 0.095 ± 0.31
73 | LSLSMPYSGVLSELYAIATF | -0.384 ± 0.27
74 | LCFMILNGGRQSQAQKDSYV | 0.086 ± 0.4
75 | RGMKCIMSSKDVGS | -1.13 ± 2.4

Row | Substance | amyloid nucleation score
76 | MSHFCLSLGAAASMNPLQLG | -0.309 ± 1.1
77 | IYRLTCETEVRCGTFNDIVD | 0.105 ± 0.21
78 | GIKAIKCDEPSCAVLGLNSS | -0.536 ± 0.5
79 | KTSNKWMIKRNYRAYGHCSV | -0.357 ± 0.37
80 | GNSFISV | -0.088 ± 0.81
81 | LVSMYA | -0.859 ± 0.73
82 | MSTVFADLR | -0.292 ± 0.29
83 | FNVRC | 0.496 ± 0.36
84 | FYGIARNVLRVGESMARYT | -0.059 ± 1.2
85 | MYTSDHNSGVASMCIVVGFF | 3.76 ± 0.08
86 | KPMFSLGSNYKMCIYHGCFM | 8.183 ± 0.061
87 | TSSMCVFVSGNSEFVLWALE | 0.286 ± 0.51
88 | FCAGGMGNCKCWLCFLRSTM | -1.33 ± 0.7
89 | LFIYDLQLRHDYHQGYELES | 0.544 ± 0.9
90 | CGLERTCRRGPSELTCTLYE | -0.201 ± 0.56
91 | RNLCTWVNRKELLSSEYLLF | -0.249 ± 0.31
92 | QIWPKAWPLFWPRNRKYANR | -0.077 ± 0.26
93 | RYCCHMSRSTYNIICCRWTN | inactive
94 | SHRYFKWLRSIDEEVVESL | 0.677 ± 0.9
95 | SLFSWVCRSITGPILRISLR | 0.73 ± 0.24
96 | HSLLWPLGFAQ | 0.184 ± 0.67
97 | RCGGSRDSACLANWIQFTMQ | 4.67 ± 0.064
98 | KWIRRRTDIFELSRLVWMGW | -0.694 ± 0.58
99 | GVLSIVVKSR | -2.2 ± 1.7
100 | DDLACRSQ | 0.614 ± 0.27

Row | Substance | amyloid nucleation score
101 | MAPRFIDVMQ | -0.94 ± 0.97
102 | RSLQDGILKTKNCL | 0.659 ± 0.24
103 | LGSEAS | 0.093 ± 0.2
104 | FGMVGTCYRMDRWDVIAVSV | 0.44 ± 0.41
105 | RWVTSLRPNLDLS | 0.869 ± 0.52
106 | YGYAAYVDMRSGL | -0.257 ± 0.33
107 | ATYAYRFRLVSTIICLD | -0.222 ± 1.4
108 | LDLVTGL | 1.1 ± 0.66
109 | NMGSFELWYYGLKASVGFAN | 0.513 ± 0.4
110 | RYRPSVCRS | 0.872 ± 0.54
111 | GVHYYHLASWTWISFLITRR | 0.424 ± 0.85
112 | LTGGLMV | -0.06 ± 0.34
113 | GLGMSRPYGSAPTRPDQNKI | 0.275 ± 1.1
114 | GTSLRSGWRYCEFTRRSCLV | 0.068 ± 0.6
115 | SVLWCPRCRYCKFAGVRTWK | -0.398 ± 0.97
116 | TTFFFDF | 2.59 ± 0.18
117 | SCMESSVTL | 0.656 ± 0.35
118 | GFYRAERYSRFMRAVGRLSN | -0.771 ± 0.76
119 | RTYKINGQSKFSLACITTLS | -0.125 ± 0.7
120 | SGCVQLM | 1.32 ± 0.74
121 | LIHLMRRNAAKTPGAQRDN | 0.947 ± 0.7
122 | MSYRD | -0.995 ± 1.7
123 | SNFCDTCLKLRGNTCMASFT | -0.259 ± 0.42
124 | AAVLGFCSWNLRRRIMEF | -0.864 ± 1.4
125 | WCRIVG | 0.227 ± 0.57

— the supplement of paper PMC12042874
